B1: LINE1-full (parent)
chain: UACGUAGGUGGUUUUCCCCUGAUAGUGCUAAGGGGGCCUGGAAGUUUGGACUGGGCAGAGCUCAACACAGCGUGGCAAAGUGGCUGUGGCUAGACUGCCUCUCUGGAUUCCUCGUCACUCAGCAGGGCAUCUCUGAGAGAAAUGCC

In the data set the parent is B1. The experiment in a line: self-cleavage, relative activity (ratio to wild type); higher = more cleavage; in vitro, sequencing; the parent is a self-cleaving ribozyme.
On to A77G G97C, for which the self-cleavage was 0.65.

In the case of A77G G97U, the self-cleavage worked out at 0.08.

Regarding A77G A124G, the self-cleavage worked out at 1.9.

As for A77G A124U, the self-cleavage was 1.84.

On to A79G U81C, for which the self-cleavage was determined as 0.27.

Regarding A79G U81A, the self-cleavage is 2.28.

Turning to A79U C99A, the self-cleavage was 0.31.

Take A78U U91G: the self-cleavage is 0.11.

Regarding A78U A141G, the self-cleavage worked out at 1.96.

Turning to A77C U108C, the self-cleavage is 1.6.

As for A79G U91A, the self-cleavage is 0.32.

For the variant A78C A138G, the self-cleavage came out at 1.84.

On to A78U A92U, for which the self-cleavage came to 1.02.

A79G A92G: the self-cleavage was 0.18.

As for A79G A92U, the self-cleavage was 0.66.

As for A79G U102A, the self-cleavage worked out at 1.12.

On to A79G U102C, for which the self-cleavage amounted to 0.89.

Regarding A78U U115C, the self-cleavage was determined as 1.72.

As to A77U A107U, the self-cleavage stood at 0.62.

On to A78U U102C, for which the self-cleavage is 1.12.

For A78G U85A, the self-cleavage was 0.09.

With A77U A136U, the self-cleavage stood at 0.75.

As for A77G A129G, the self-cleavage came to 2.21.

As to A77G U108C, the self-cleavage was determined as 2.51.

For A77G A107G, the self-cleavage was 2.08.

For the variant A77U U91C, the self-cleavage amounted to 0.6.

For the variant A77U U85C, the self-cleavage stood at 0.09.

A79G C84G: the self-cleavage amounted to 0.07.

With A78U C116G, the self-cleavage was 2.13.

Turning to A78G G89C, the self-cleavage was 0.07.

Regarding A78C U108C, the self-cleavage turned out to be 2.16.

On to A78C U96C, for which the self-cleavage turned out to be 0.29.

For A79G U100A, the self-cleavage is 0.71.

Regarding A77U G125A, the self-cleavage was found to be 1.33.

Consider A77U G125U, for which the self-cleavage was 1.5.

As to A78U A142U, the self-cleavage came out at 2.12.

Regarding A78U A142G, the self-cleavage is 1.87.

Regarding G80C A141G, the self-cleavage is 1.04.

Regarding A77U U87A, the self-cleavage was found to be 0.05.

As to A77U U87C, the self-cleavage worked out at 0.09.

With A78G A94G, the self-cleavage was found to be 0.49.

Turning to A78G A94U, the self-cleavage came to 0.19.

Turning to A77U A129U, the self-cleavage is 1.24.

With A79G G126A, the self-cleavage came to 1.51.

A78U A124U: the self-cleavage was 2.15.

With A77U U104C, the self-cleavage came to 1.74.

Regarding A79G U132G, the self-cleavage is 0.63.

With A79G A107C, the self-cleavage was 0.92.

Take A79G A107G: the self-cleavage turned out to be 1.21.

Take A79G A124G: the self-cleavage stood at 0.62.

In the case of G80A A94G, the self-cleavage was found to be 0.23.

Turning to A77G G139U, the self-cleavage turned out to be 2.41.

Take G80A G126U: the self-cleavage was 2.06.

For A79G A136G, the self-cleavage was determined as 1.42.

As to A77U U112A, the self-cleavage came out at 1.1.

With A79C U91A, the self-cleavage is 0.94.

With A78U G135A, the self-cleavage came to 1.8.

For the variant A78U G122A, the self-cleavage was determined as 1.36.

Take A79U U109G: the self-cleavage came to 1.1.

Regarding A79U U109C, the self-cleavage amounted to 1.34.

With A78G A140G, the self-cleavage was determined as 1.18.

Consider A78G A140U, for which the self-cleavage stood at 1.38.

On to A79U C84A, for which the self-cleavage was 0.21.

As for A77U G122A, the self-cleavage is 0.36.

A79G C110U: the self-cleavage is 2.15.

With A79G C110A, the self-cleavage was determined as 1.29.

Take A77G A94U: the self-cleavage amounted to 0.61.

On to A77G A94G, for which the self-cleavage was 0.68.

As to A78G U130A, the self-cleavage was found to be 1.1.

Turning to A78G U130C, the self-cleavage is 1.29.

Take A78G U130G: the self-cleavage came out at 1.88.

Consider A77U A124C, for which the self-cleavage worked out at 1.49.

As for A77U A124U, the self-cleavage stood at 1.27.

As for A77C U100C, the self-cleavage is 1.53.

For the variant A79G U96C, the self-cleavage was 0.16.

For the variant A79G U96A, the self-cleavage was found to be 0.09.

Regarding A77G C110U, the self-cleavage was 0.71.

As to A77G C113A, the self-cleavage was determined as 2.1.

Consider A77G C113U, for which the self-cleavage came out at 2.28.

As to G80C U109C, the self-cleavage was determined as 1.27.

Consider A77G A136G, for which the self-cleavage is 2.64.

As for A77G A136U, the self-cleavage is 1.92.

As for A78G C116U, the self-cleavage is 1.29.

In the case of A78G C98G, the self-cleavage is 0.11.

A78G C98U: the self-cleavage came out at 0.47.

As for A78C G122A, the self-cleavage came out at 1.41.

For A79C U119A, the self-cleavage is 1.01.

Consider A79U A121C, for which the self-cleavage is 1.64.

Turning to A77G C133U, the self-cleavage was 1.99.

Consider G80A A121C, for which the self-cleavage came out at 2.91.

Take A77U U81A: the self-cleavage amounted to 1.89.

For the variant A79G G144C, the self-cleavage turned out to be 0.77.

With A77G G93U, the self-cleavage was found to be 0.05.

In the case of A78C U109C, the self-cleavage worked out at 2.32.

Turning to A77G G83A, the self-cleavage worked out at 1.75.

As for A77G U102A, the self-cleavage came to 2.63.

On to A79C A92G, for which the self-cleavage amounted to 0.24.

For A77U A138U, the self-cleavage is 1.27.

As to A77U A138G, the self-cleavage stood at 1.75.

For A77C U102A, the self-cleavage turned out to be 1.37.

In the case of A79U C116A, the self-cleavage was determined as 1.49.

For A79G G82U, the self-cleavage stood at 1.32.

Turning to A78G U96A, the self-cleavage was determined as 0.06.

Regarding G80U A124G, the self-cleavage was 1.69.

In the case of G80A A136U, the self-cleavage turned out to be 2.49.

Turning to A79C A136G, the self-cleavage was found to be 1.93.

In the case of A78U G127C, the self-cleavage worked out at 2.34.

Take G80A U100C: the self-cleavage stood at 1.42.

For the variant A78U U87C, the self-cleavage came out at 0.84.

For A78G U132A, the self-cleavage is 1.62.

In the case of A78G U132C, the self-cleavage came to 1.39.

Consider A77U U143G, for which the self-cleavage was 1.48.

For the variant A77U U143C, the self-cleavage amounted to 1.04.

In the case of A79G U108A, the self-cleavage was 1.17.

Take A79G U108C: the self-cleavage amounted to 1.61.

Consider A78G A121G, for which the self-cleavage is 1.24.

Take A78G A121U: the self-cleavage was 0.67.

In the case of A78G A121C, the self-cleavage is 1.9.

Regarding A78C U102C, the self-cleavage is 2.53.

As to A78G A129U, the self-cleavage was found to be 1.17.

For the variant A79G U104G, the self-cleavage was found to be 1.7.

Take A79G U104C: the self-cleavage turned out to be 1.22.

On to A79G U104A, for which the self-cleavage turned out to be 1.35.

Consider A77G C98A, for which the self-cleavage worked out at 0.23.

A77G C98G: the self-cleavage was determined as 0.21.

In the case of A79U G86A, the self-cleavage amounted to 0.07.

For A79G A140G, the self-cleavage was 1.12.

Take A79G C118U: the self-cleavage is 2.23.

A79U: the self-cleavage was 1.85.

With A79C, the self-cleavage stood at 1.57.

Regarding A79G, the self-cleavage worked out at 1.25.

In the case of A77U U108G, the self-cleavage is 1.37.

In the case of A78G C84A, the self-cleavage came out at 0.09.

In the case of A77U A94G, the self-cleavage stood at 0.24.

As to A79G A117G, the self-cleavage came to 1.27.

In the case of A77G G125A, the self-cleavage stood at 2.43.

A77G G125U: the self-cleavage worked out at 2.41.

With A77U U119A, the self-cleavage was determined as 1.51.

Take A78U C84A: the self-cleavage turned out to be 0.18.

As for A77C U115C, the self-cleavage was found to be 0.6.

Take A77G A141G: the self-cleavage was determined as 2.25.

With A77G A141U, the self-cleavage was determined as 1.89.

As for A79G C98G, the self-cleavage came to 0.12.

Turning to U81A A92G, the self-cleavage worked out at 0.15.

Take A79C U134A: the self-cleavage amounted to 1.24.

Regarding G80A G89A, the self-cleavage stood at 0.07.

Turning to G80C G86U, the self-cleavage is 0.04.

As for A78G U134A, the self-cleavage is 0.9.

Consider A78G U134G, for which the self-cleavage was 1.07.

For A78C A117G, the self-cleavage came to 2.21.

On to A79G G137A, for which the self-cleavage is 1.03.

Turning to A79G C116U, the self-cleavage turned out to be 1.63.

For the variant A77U C123U, the self-cleavage amounted to 0.84.

With A79G C145U, the self-cleavage was 1.09.

With A79G U87G, the self-cleavage came to 0.07.

Turning to A78G G135A, the self-cleavage came to 1.17.

Regarding A77U A79G, the self-cleavage is 1.48.

Turning to A79G G135A, the self-cleavage amounted to 1.38.

A77U U132C: the self-cleavage was found to be 1.41.

A77U U132G: the self-cleavage is 1.74.

In the case of G80A A141G, the self-cleavage worked out at 1.89.

Consider A77U U130G, for which the self-cleavage amounted to 1.86.

Consider A79G G105U, for which the self-cleavage is 1.19.

For the variant A79G G105A, the self-cleavage came out at 1.29.

A77G U119C: the self-cleavage turned out to be 2.81.

For A77U A121G, the self-cleavage came to 1.6.

For A79G A129U, the self-cleavage was determined as 1.16.

The values above are taken from the RNAGym collection of RNA variant scans (doi:10.7554/elife.90254).
